# Source: publication PMC4070910, “Cathepsin S Signals via PAR2 and Generates a Novel Tethered Ligand Receptor Agonist” (PLoS ONE, 2014)
# “Also recorded” adds a separate entry of the source.
# B1: cathepsin S: Recombinant human cathepsin S, cysteine protease, expressed in E.coli, refolded and activated (protein, UniProt P25774 115-331, looked up)
# Cathepsin S: LPDSVDWREKGCVTEVKYQGSCGACWAFSAVGALEAQLKLKTGKLVSLSAQNLVDCSTEKYGNKGCNGGFMTTAFQYIIDNKGIDSDASYPYKAMDQKCQYDSKYRAATCSKYTELPYGREDVLKEAVANKGPVSVGVDARHPSFFLYRSGVYYEPSCTQNVNHGVLVVGYGDLNGKEYWLVKNSWGHNFGEEGYIRMARNKGNHCGIASFPSYPEI
# What was measured:
# [1] = test system: PAR2M1 (leucine38 to alanine); assay: Calcium imaging in HeLa cells transfected with PAR2M1; format: cell-based, human; conditions: cathepsin S 2 µM, KVDGTS 100 µM
# Experimental: Human PAR2 cDNA was cloned as an Xho I-Hind III fragment (1206 bp) into pcDNA3.1(−). 10 µg of DNA were diluted into 0.5 ml of DMEM and mixed with 0.5 ml of DMEM containing 10 µl of Lipofectamine 2000 transfection reagent and incubated at room temperature for 20 minutes. HeLa cells were grown to confluence, trypsinized and 1×10^6 cells were pelleted in a 15 ml tube by centrifugation at 1000 rpm for 5 minutes. The DMEM-Lipofectamine 2000-DNA mixture (1 ml) was added to the cell pellet, resuspended gently and incubated at room temperature for 20 minutes. Four ml of complete DMEM with 10% FBS were added to the tube, mixed by inverting the tube several times, plated into a 96-well glass bottom plate at 20,000 cells/well, and placed in a 37°C CO2 incubator. HeLa cells transfected with vector alone or salmon sperm DNA (shown in the figures) were plated as a control. The medium was aspirated two days after transfection. Fura-2 was used as a ratiometric calcium-sensitive indicator as follows. […]
# Imaging was performed using a Zeiss Axiovert 200 M microscope platform equipped with a flipping filter wheel for ratiometric imaging. […] The software later analyzed all images taken during each excitation period. Typically, ratiometric changes were measured in 10–20 cells in each image. An average of the fluorescence of the cells in each image was calculated and plotted against time in seconds. […]
# human PAR2 = assay: Fura-2 calcium imaging in HeLa cells transfected with PAR2 cDNA; format: cell-based
# Experimental: Human PAR2 cDNA was cloned as an Xho I-Hind III fragment (1206 bp) into pcDNA3.1(−). 10 µg of DNA were diluted into 0.5 ml of DMEM and mixed with 0.5 ml of DMEM containing 10 µl of Lipofectamine 2000 transfection reagent and incubated at room temperature for 20 minutes. HeLa cells were grown to confluence, trypsinized and 1×10^6 cells were pelleted in a 15 ml tube by centrifugation at 1000 rpm for 5 minutes. The DMEM-Lipofectamine 2000-DNA mixture (1 ml) was added to the cell pellet, resuspended gently and incubated at room temperature for 20 minutes. Four ml of complete DMEM with 10% FBS were added to the tube, mixed by inverting the tube several times, plated into a 96-well glass bottom plate at 20,000 cells/well, and placed in a 37°C CO2 incubator. HeLa cells transfected with vector alone or salmon sperm DNA (shown in the figures) were plated as a control. The medium was aspirated two days after transfection. Fura-2 was used as a ratiometric calcium-sensitive indicator as follows. 100 µl of complete DMEM containing 2 µM of Fura-2 were added to each well and left at room temperature in the dark for 1 hr. Following loading with Fura-2, the medium was aspirated and replaced with 90 µl of HEPES-buffered saline (20 mM HEPES, 115 mM NaCl, 5.4 mM KCl, 2 mM CaCl2, 0.8 mM MgCl2, 13.8 mM glucose, pH 7.4).
# Imaging was performed using a Zeiss Axiovert 200 M microscope platform equipped with a flipping filter wheel for ratiometric imaging. Axiovision software, version 4.6 was used for image analysis of the cells which were excited at 340 nm and 380 nm. Ten µl of peptide agonist were added at 20 seconds after the start of the excitation procedure. Images were taken every 5 seconds, including at zero time, during a 3-minute period or longer if required. The software later analyzed all images taken during each excitation period. Typically, ratiometric changes were measured in 10–20 cells in each image. An average of the fluorescence of the cells in each image was calculated and plotted against time in seconds.
# HeLa cells transfected with PAR2 cDNA were subjected to ratiometric imaging as described above with PAR2 peptides, SLIGRL, KVDGTS, and SLIGKVDGTS in addition to the reverse peptides LRGILS and STGDVK at concentrations from 1 nM - 1 mM. Each of the concentration-dependent readings was performed in triplicate. Maximum intensities at each of the dilutions were calculated and plotted against concentration using GraphPad/PRISM software version 6.0 (Irvine, CA). Error bars represent +/−SEM.
molecule,measurement,setting,value
B1,calcium response on PAR2M1 (in words),[1],induced normal calcium responses; also recorded: able to stimulate native PAR2 and PAR2M1
same,effect as first agent on calcium response to second agent (in words),"human PAR2; PAR2-transfected HeLa, KVDGTS 100 µM, cathepsin S 2 µM, papain 2 µM, trypsin 10 nM, second agent after up to 60 minutes, room temperature",failed to induce a calcium response at any time up to 60 minutes
same,calcium response to the substance as second agent after KVDGTS (in words),"human PAR2; PAR2-transfected HeLa, second agent after 2, 3, 5, 10, 30 and 60 minutes (cathepsin S), papain 2 µM, trypsin 10 nM, room temperature",present but reduced
same,calcium response (in words),"human PAR2; single-cell imaging, KVDGTS 100 µM, SLIGRL 10 µM, IGKVDG 100 µM, cathepsin S 2 µM, room temperature",able to stimulate native PAR2 and PAR2M1
same,concentration at which active/effective,human PAR2; summary of these studies (discussion),1 to 2 µM
